{"source": "paper PMC4970993", "about": "“Kinetic studies on recombinant UDP-glucose: sterol 3-O-β-glycosyltransferase from Micromonospora rhodorangea and its bioconversion potential” (AMB Express, 2016)", "key": {"[1]": {"substrate": "C=C(CC[C@@H](C)[C@H]1CC[C@H]2C3=CC[C@H]4[C@H](C)[C@@H](O)CC[C@]4(C)[C@H]3CC[C@]12C)C(C)C", "experiment": "HPLC-MS/MS of sterol glucoside formation, Michaelis-Menten fit", "format": "biochemical, Micromonospora echinospora", "details": "glycosyl acceptor, 0.8 mM UDP-Glc, 50 mM Tris-HCl pH 7.4 (pH 7.5), 5 mM MgCl2, 30 °C, apparent", "description": "(§1) HPLC-MS/MS of sterol glucoside formation, Michaelis-Menten fit on MrSGT"}, "[2]": {"substrate": "[H][C@@]12CC=C3C[C@@H](O)CC[C@]3(C)[C@@]1([H])CC[C@@]1(C)[C@@]2([H])CC[C@]1([H])[C@H](C)CC[C@@H](CC)C(C)C", "experiment": "HPLC-MS/MS of sterol glucoside formation, Michaelis-Menten fit", "format": "biochemical, Micromonospora echinospora", "details": "glycosyl acceptor, 0.8 mM UDP-Glc, 50 mM Tris-HCl pH 7.4 (pH 7.5), 5 mM MgCl2, 30 °C, apparent", "description": "as §1"}, "[3]": {"substrate": "O=c1ccn([C@@H]2O[C@H](CO[P@@](=O)(O)O[P@@](=O)(O)O[C@H]3O[C@H](CO)[C@@H](O)[C@H](O)[C@H]3O)[C@@H](O)[C@H]2O)c(=O)[nH]1", "experiment": "HPLC-MS/MS of sterol glucoside formation, Michaelis-Menten fit", "format": "biochemical, Micromonospora echinospora", "details": "glycosyl donor, 0.6 mM β-sitosterol as acceptor, 50 mM Tris-HCl pH 7.4 (pH 7.5), 5 mM MgCl2, 30 °C, apparent", "description": "as §1"}, "[4]": {"substrate": "CC(C)[C@H](C)CC[C@@H](C)[C@H]1CC[C@H]2[C@@H]3CC=C4C[C@@H](O)CC[C@]4(C)[C@H]3CC[C@]12C", "experiment": "HPLC-MS/MS of sterol glucoside formation, Michaelis-Menten fit", "format": "biochemical, Micromonospora echinospora", "details": "glycosyl acceptor, 0.8 mM UDP-Glc, 50 mM Tris-HCl pH 7.4 (pH 7.5), 5 mM MgCl2, 30 °C, apparent", "description": "as §1"}, "[5]": {"substrate": "C/C=C(\\CC[C@@H](C)[C@H]1CC[C@H]2[C@@H]3CC=C4C[C@@H](O)CC[C@]4(C)[C@H]3CC[C@]12C)C(C)C", "experiment": "HPLC-MS/MS of sterol glucoside formation, Michaelis-Menten fit", "format": "biochemical, Micromonospora echinospora", "details": "glycosyl acceptor, 0.8 mM UDP-Glc, 50 mM Tris-HCl pH 7.4 (pH 7.5), 5 mM MgCl2, 30 °C, apparent", "description": "as §1"}, "purified protein": {"substrate": "CC(C)CCC[C@@H](C)[C@H]1CC[C@H]2[C@@H]3CC=C4C[C@@H](O)CC[C@]4(C)[C@H]3CC[C@]12C", "experiment": "purified protein", "details": "glycosyl acceptor, 0.8 mM UDP-Glc, 50 mM Tris-HCl pH 7.4 (pH 7.5), 5 mM MgCl2, 30 °C, apparent"}}, "data": [{"protein": "MrSGT (Micromonospora echinospora) (protein, recombinant His-tagged protein expressed in E. coli BL21(DE3), purified; ORF from fosmid library) MRILIATAGSRGDVAPYTGLGAALRRAGYDVAVATTDTFARMVRDAGLGFRRLPADTRGHAGVRSNREVVRAAGVHRGTGPGLRRRAVSEGTDLLLLSTTTAPLGWLIGEATGIRSLGVYLQPTAPTADFPPVVTGARSLGRLGNRTAGRLALRMADRIYAEAVAGLRERLCLPPLSAAAMRARQERAGWPVLHGFGTALVPRPADWRPGLEVVGPWWPHHDAGERLPSELEDFLDAGPRPVLVGFGSMAAGDGERLSELAVRALRRAGLRGILQSGNACLAAEGDDVLTVGDVPHALLFPRLAAVVHHGGAGTRRDPAGGRPLGGGPGDRRPEPFWAGRLARIGAAPAPVPFTTLTADGLAGALGRVVGDEAYARAAEKAARHLAAEDGAARV", "values": [{"measurement": "Km", "setting": "[1]", "result": "510 ± 60", "unit": "µM"}, {"measurement": "kcat", "setting": "[1]", "result": "0.13 ± 0.017", "unit": "s⁻¹"}, {"measurement": "kcat/Km", "setting": "[1]", "result": 257, "unit": "M⁻¹ s⁻¹"}, {"measurement": "Km", "setting": "[2]", "result": "90 ± 10", "unit": "µM"}, {"measurement": "kcat", "setting": "[2]", "result": "0.122 ± 0.0172", "unit": "s⁻¹"}, {"measurement": "kcat/Km", "setting": "[2]", "result": 1350, "unit": "M⁻¹ s⁻¹"}, {"measurement": "Km", "setting": "[3]", "result": "280 ± 30", "unit": "µM"}, {"measurement": "kcat", "setting": "[3]", "result": "0.122 ± 0.0172", "unit": "s⁻¹"}, {"measurement": "Km", "setting": "[4]", "result": "280 ± 30", "unit": "µM"}, {"measurement": "kcat", "setting": "[4]", "result": "0.128 ± 0.0165", "unit": "s⁻¹"}, {"measurement": "kcat/Km", "setting": "[4]", "result": 457, "unit": "M⁻¹ s⁻¹"}, {"measurement": "Km", "setting": "[5]", "result": "130 ± 20", "unit": "µM"}, {"measurement": "kcat", "setting": "[5]", "result": "0.122 ± 0.0273", "unit": "s⁻¹"}, {"measurement": "kcat/Km", "setting": "[5]", "result": 940, "unit": "M⁻¹ s⁻¹"}, {"measurement": "Km", "setting": "purified protein", "result": "450 ± 50", "unit": "µM"}, {"measurement": "kcat", "setting": "purified protein", "result": "0.132 ± 0.0185", "unit": "s⁻¹"}, {"measurement": "kcat/Km", "setting": "purified protein", "result": 292, "unit": "M⁻¹ s⁻¹"}]}]}
